Assay results: patent US9814672B2, “Echogenic vehicle for clinical delivery of plasminogen activator and other fibrin-binding therapeutics to thrombi” (priority 2007, dated 2017)

Target: T1, fibrin (Homo sapiens, UniProt P02671+P02675+P02679)
T1 construct: purchased Calbiochem (EMD Biosciences, Inc., La Jolla, Calif.)
T1 sequence (P02671 36-629 limits assumed): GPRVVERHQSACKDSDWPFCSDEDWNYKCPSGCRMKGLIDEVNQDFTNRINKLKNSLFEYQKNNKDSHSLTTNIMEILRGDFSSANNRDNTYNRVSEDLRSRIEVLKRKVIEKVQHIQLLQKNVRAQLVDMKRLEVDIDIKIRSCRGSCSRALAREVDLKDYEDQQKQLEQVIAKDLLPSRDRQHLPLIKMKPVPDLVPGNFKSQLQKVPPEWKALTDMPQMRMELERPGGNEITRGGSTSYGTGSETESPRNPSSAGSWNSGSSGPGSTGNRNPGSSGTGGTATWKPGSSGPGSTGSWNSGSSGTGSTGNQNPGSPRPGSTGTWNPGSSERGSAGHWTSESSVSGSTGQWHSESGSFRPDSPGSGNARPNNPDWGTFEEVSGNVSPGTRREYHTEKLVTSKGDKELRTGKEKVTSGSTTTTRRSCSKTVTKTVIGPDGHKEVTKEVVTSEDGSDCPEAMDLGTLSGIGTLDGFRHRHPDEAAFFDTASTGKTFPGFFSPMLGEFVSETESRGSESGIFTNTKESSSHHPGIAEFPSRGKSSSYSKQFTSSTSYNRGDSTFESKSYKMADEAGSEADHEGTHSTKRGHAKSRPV
T1 sequence (P02675 45-491 limits assumed): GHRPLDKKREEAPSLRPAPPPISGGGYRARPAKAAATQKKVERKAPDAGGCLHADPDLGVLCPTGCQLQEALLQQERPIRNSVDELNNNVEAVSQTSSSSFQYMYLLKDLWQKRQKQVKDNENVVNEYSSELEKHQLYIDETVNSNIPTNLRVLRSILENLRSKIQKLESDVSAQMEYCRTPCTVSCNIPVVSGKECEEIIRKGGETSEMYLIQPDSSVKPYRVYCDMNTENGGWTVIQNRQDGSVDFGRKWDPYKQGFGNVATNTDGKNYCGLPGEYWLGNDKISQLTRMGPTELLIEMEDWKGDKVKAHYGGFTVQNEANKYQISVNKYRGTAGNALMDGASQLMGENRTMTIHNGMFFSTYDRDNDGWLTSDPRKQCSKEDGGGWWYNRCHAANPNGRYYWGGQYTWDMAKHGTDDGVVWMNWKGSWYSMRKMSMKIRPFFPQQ
T1 sequence (P02679 27-437 isoform P02679-2 limits assumed): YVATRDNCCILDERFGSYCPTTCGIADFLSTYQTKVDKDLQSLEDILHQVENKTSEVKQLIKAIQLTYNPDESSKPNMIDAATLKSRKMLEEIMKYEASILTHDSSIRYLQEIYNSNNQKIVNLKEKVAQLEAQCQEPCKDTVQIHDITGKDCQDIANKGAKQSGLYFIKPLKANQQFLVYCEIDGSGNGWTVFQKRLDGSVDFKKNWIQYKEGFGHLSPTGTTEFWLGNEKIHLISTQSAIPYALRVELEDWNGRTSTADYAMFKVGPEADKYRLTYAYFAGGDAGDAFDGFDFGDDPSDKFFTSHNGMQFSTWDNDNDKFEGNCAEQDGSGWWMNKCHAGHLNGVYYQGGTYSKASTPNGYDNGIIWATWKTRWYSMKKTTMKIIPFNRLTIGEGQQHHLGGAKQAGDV
Assay: Solid-phase fibrin-tPA activity assay (SOFIA-tPA), Scatchard analysis
Details: 37° C., read-out: KD of fibrin binding
Method: tPA-binding to fibrin was tested using a modification of the solid-phase fibrin-tPA activity assay (SOFIAtPA) developed by Angles-Cano (1986). This method combines a quantitative enzyme-linked immunosorbent assay (ELISA) technique, which enables calculation of ligand binding affinities, with a chromogenic measurement of enzyme specific activity. The latter provides quantitation of tPA bound to fibrin in the microtiter well, which permits the determination of binding affinities and immobilized fibrin concentration by classic Scatchard analysis.
Nunc Maxisorb microtiter plates were coated overnight at 4° C. with human fibrinogen (Calbiochem; 2.5.tg in 50 p.l 0.05 M sodium bicarbonate, pH 9.6, per well). Background wells were left uncoated. […]
About 200 μl of substrate-zymogen reagent (0.33 μM plasminogen+0.33 mM D-Val-Leu-Lys-p-nitroanilide in 0.02 M PBS, pH 7.3, with 0.1 M sodium chloride) was added to each sample well and to 12 additional wells (standard wells). […] The plates were then read at 405 nm in a Coulter microplate reader. Based on the response of the standards and the net OD of samples corrected for background absorbance in albumin-coated wells, concentrations of bound active tPA were calculated; Scatchard analyses were then performed and binding affinities determined.

- Kd: 2.61 nM
Substance: tPA: Recombinant tissue-plasminogen activator (Activase®, Genentech Inc.), used as the thrombolytic agent [reference compound]
